According to patent US20190134153A1, “IMMUNOMODULATORY EFFECT OF INHALED KINASE INHIBITOR PEPTIDES IN LUNG” (MOERAE MATRIX, INC., priority 2017, published 2019):

Tests used:
Assay in all cases: Kinase Profiling Assay
Format in all cases: biochemical
Details in all cases: 100 μM
MKK7β(h) = target: T1, MKK7β(h) (Homo sapiens, UniProt O14733)
T1 sequence (O14733 1-419): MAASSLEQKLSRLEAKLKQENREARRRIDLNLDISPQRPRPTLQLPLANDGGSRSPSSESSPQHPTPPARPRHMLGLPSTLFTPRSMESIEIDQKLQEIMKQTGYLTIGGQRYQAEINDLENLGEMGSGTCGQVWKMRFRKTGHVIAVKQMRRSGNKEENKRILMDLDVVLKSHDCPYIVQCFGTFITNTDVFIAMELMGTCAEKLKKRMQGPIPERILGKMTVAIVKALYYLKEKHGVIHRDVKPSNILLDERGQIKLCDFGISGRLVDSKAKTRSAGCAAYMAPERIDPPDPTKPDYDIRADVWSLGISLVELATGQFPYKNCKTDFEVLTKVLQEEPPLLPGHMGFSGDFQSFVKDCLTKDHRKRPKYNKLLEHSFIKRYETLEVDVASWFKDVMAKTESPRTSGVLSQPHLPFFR

CK1γ2(h) = CK1γ2(h) (Homo sapiens, UniProt P78368)
CK1γ3(h) = CK1γ3(h) (Homo sapiens, UniProt Q9Y6M4)
Sequence of CK1γ3(h) (Q9Y6M4 whole entry): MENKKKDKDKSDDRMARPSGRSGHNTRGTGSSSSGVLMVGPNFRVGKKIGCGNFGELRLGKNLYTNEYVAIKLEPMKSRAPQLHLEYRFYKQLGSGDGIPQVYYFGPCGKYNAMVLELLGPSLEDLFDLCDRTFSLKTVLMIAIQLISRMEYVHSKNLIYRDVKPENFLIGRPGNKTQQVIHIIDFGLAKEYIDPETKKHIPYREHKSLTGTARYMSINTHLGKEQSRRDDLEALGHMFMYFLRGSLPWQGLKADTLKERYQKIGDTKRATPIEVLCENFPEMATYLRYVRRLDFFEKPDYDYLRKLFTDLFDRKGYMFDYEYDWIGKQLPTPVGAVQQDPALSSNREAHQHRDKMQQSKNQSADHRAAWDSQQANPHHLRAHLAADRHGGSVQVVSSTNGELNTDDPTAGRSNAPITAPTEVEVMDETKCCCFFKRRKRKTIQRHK

Abl (H396P) (h) = Abl (H396P) (h) (Homo sapiens, UniProt P00519, H396P)
HIPK3(h) = HIPK3(h) (Homo sapiens, UniProt Q9H422)
Sequence of HIPK3(h) (Q9H422 whole entry): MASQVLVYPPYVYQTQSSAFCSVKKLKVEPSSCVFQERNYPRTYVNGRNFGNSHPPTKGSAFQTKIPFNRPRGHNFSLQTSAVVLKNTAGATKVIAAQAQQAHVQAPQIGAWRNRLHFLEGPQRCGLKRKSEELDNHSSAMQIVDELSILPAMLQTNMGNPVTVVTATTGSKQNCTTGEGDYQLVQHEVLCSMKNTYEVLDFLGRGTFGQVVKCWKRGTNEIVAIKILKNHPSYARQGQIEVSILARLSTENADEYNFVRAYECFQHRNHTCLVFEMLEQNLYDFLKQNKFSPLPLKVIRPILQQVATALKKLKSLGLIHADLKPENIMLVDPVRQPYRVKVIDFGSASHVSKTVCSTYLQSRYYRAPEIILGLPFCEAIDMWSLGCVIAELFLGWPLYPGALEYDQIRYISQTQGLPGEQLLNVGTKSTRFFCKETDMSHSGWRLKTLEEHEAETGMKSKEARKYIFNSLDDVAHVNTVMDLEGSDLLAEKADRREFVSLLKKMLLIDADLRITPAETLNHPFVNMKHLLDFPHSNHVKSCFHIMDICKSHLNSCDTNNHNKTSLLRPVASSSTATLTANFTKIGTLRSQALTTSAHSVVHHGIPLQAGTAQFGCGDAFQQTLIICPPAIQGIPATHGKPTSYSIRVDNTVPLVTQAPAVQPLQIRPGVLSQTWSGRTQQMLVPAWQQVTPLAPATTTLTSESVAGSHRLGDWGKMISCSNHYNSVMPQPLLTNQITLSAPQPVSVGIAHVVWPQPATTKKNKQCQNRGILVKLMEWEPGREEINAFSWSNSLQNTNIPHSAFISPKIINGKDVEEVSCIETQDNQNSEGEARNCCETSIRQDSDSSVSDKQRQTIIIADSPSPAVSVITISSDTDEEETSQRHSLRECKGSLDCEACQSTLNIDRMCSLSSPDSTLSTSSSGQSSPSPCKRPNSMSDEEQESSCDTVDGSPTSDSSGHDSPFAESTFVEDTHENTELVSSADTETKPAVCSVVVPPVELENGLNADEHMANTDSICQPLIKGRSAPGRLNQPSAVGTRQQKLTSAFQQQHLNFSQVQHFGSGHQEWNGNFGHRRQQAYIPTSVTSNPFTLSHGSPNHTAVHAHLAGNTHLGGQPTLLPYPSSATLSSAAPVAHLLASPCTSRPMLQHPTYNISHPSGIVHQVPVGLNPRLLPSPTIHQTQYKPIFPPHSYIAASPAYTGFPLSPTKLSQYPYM

Abl (M351T)(h) = Abl (M351T)(h) (Homo sapiens, UniProt P00519, M351T)
EGFR(T790M)(h) = EGFR(T790M)(h) (Homo sapiens, UniProt P00533, T790M)
c-RAF(h) = c-RAF(h) (Homo sapiens, UniProt P04049)
Snk(h) = Snk(h) (Homo sapiens, UniProt Q9NYY3)
Sequence of Snk(h) (Q9NYY3 whole entry): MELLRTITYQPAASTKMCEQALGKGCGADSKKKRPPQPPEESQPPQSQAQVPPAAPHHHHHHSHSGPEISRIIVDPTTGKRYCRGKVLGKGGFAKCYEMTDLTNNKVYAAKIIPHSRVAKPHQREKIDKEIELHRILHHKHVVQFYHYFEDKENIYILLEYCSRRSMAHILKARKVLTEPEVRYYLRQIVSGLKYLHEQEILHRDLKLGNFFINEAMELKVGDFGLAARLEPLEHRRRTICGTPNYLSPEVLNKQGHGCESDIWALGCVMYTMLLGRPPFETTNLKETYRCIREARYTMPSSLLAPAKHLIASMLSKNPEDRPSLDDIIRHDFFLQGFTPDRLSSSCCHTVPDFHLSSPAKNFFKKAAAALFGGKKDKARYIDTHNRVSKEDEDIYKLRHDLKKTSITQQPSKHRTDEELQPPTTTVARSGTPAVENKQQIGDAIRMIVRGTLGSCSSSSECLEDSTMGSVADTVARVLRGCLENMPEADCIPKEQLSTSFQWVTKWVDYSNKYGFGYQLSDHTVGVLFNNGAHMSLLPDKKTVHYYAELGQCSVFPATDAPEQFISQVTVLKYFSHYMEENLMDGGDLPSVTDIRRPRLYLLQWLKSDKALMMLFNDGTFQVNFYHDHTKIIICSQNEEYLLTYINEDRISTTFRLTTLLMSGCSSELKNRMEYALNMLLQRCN

PDGFRα(D842V)(h) = PDGFRα(D842V)(h) (Homo sapiens, UniProt P16234, D842V)
Sequence of PDGFRα(D842V)(h) (P16234 24-1089 D842V): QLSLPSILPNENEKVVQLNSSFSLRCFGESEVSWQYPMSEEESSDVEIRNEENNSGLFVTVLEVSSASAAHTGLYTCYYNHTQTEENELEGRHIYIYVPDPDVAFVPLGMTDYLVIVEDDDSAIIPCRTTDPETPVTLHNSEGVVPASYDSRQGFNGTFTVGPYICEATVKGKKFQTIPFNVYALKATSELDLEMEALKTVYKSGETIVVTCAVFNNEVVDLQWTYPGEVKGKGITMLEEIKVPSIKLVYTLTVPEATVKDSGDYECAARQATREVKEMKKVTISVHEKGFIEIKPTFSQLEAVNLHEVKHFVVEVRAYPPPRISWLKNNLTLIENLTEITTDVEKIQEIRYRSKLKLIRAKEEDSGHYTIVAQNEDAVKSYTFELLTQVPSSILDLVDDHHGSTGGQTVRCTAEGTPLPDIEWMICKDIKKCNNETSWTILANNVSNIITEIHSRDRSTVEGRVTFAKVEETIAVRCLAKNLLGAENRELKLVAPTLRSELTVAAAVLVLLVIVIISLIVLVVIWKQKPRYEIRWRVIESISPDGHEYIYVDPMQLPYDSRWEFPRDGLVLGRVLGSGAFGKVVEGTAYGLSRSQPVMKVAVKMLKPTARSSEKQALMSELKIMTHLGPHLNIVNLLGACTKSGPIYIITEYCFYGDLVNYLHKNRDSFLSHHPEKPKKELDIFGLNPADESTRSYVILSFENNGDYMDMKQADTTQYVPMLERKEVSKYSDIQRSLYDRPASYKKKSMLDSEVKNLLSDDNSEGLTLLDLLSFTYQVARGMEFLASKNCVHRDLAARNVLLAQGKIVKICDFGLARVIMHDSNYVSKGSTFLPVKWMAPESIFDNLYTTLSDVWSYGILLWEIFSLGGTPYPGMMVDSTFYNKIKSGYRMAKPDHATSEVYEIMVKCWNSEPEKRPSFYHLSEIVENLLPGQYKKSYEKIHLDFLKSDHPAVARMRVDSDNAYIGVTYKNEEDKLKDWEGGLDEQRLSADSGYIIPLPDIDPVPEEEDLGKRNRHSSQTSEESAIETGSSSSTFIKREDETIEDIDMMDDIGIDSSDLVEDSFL

PKA(h) = PKA(h) (Homo sapiens, UniProt P17612)
cKit(V560G)(h) = cKit(V560G)(h) (Homo sapiens, UniProt P10721, V560G)
PAK6(h) = PAK6(h) (Homo sapiens, UniProt Q9NQU5)
Tie2(R849W)(h) = Tie2(R849W)(h) (Homo sapiens, UniProt Q02763, R849W)
Sequence of Tie2(R849W)(h) (Q02763 23-1124 R849W): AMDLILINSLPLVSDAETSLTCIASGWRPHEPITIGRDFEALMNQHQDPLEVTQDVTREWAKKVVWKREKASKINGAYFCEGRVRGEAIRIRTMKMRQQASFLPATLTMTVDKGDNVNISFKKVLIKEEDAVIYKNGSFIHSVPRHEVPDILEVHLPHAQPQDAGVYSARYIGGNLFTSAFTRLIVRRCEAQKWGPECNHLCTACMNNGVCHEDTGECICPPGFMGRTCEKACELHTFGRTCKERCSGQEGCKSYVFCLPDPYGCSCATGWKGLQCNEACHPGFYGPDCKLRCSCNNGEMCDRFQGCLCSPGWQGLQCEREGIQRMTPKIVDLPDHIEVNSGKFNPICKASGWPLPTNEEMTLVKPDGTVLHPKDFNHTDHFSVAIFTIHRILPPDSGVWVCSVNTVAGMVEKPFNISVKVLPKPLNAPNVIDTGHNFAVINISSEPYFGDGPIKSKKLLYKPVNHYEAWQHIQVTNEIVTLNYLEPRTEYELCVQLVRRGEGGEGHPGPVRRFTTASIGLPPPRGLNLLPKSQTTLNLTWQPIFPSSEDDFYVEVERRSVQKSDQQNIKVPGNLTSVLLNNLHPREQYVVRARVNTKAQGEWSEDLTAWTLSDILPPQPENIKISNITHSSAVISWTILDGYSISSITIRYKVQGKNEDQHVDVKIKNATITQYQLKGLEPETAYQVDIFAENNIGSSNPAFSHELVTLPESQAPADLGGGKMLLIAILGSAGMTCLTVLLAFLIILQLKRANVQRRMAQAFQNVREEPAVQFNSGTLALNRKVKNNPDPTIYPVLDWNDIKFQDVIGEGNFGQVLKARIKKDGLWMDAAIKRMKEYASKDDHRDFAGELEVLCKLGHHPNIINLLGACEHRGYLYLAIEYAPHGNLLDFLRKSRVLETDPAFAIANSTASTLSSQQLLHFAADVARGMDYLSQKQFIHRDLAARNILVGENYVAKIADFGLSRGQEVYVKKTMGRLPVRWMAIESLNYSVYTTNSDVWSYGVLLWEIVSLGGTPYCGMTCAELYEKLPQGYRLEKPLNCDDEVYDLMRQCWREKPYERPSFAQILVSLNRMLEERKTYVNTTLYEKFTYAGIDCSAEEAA

IGF-1R(h) = IGF-1R(h) (Homo sapiens, UniProt P08069)
GRK5(h) = GRK5(h) (Homo sapiens, UniProt P34947)
Sequence of GRK5(h) (P34947 whole entry): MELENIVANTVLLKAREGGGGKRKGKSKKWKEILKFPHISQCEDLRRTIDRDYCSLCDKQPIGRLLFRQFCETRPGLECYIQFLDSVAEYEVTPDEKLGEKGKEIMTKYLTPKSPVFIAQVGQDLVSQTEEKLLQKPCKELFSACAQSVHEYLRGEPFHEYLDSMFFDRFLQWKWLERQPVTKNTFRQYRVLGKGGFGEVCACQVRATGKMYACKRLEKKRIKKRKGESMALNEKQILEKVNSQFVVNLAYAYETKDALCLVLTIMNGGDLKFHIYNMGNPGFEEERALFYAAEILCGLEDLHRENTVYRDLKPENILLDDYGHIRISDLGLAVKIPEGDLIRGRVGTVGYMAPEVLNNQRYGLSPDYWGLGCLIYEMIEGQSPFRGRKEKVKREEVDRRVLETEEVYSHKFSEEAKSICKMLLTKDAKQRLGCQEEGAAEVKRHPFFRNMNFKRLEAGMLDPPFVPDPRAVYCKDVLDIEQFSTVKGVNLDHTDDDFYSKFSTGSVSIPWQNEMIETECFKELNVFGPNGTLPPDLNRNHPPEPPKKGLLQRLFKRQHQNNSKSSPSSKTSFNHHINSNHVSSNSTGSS

CK1γ1(h) = CK1γ1(h) (Homo sapiens, UniProt Q9HCP0)
Plk1(h) = Plk1(h) (Homo sapiens, UniProt P53350)
CLK2(h) = CLK2(h) (Homo sapiens, UniProt P49760)

| Sequence | % activity (MKK7β(h)) [%] | % activity (CK1γ2(h)) [%] | % activity (CK1γ3(h)) [%] | % activity (Abl (H396P) (h)) [%] | % activity (HIPK3(h)) [%] | % activity (Abl (M351T)(h)) [%] | % activity (EGFR(T790M)(h)) [%] | % activity (c-RAF(h)) [%] | % activity (Snk(h)) [%] | % activity (PDGFRα(D842V)(h)) [%] | % activity (PKA(h)) [%] | % activity (cKit(V560G)(h)) [%] | % activity (PAK6(h)) [%] | % activity (Tie2(R849W)(h)) [%] | % activity (IGF-1R(h)) [%] | % activity (GRK5(h)) [%] | % activity (CK1γ1(h)) [%] | % activity (Plk1(h)) [%] | % activity (CLK2(h)) [%] |
| --- | --- | --- | --- | --- | --- | --- | --- | --- | --- | --- | --- | --- | --- | --- | --- | --- | --- | --- | --- |
| FAKLAARLYRKALARQLGVAA [MMI-0300] | 100 | 123 | 125 | 101 | 93 | 90 | 100 | – | – | – | – | – | – | – | – | – | – | – | – |
| HRRIKAWLKKIKALARQLGVAA [MMI-0500] | – | – | – | 51 | 85 | 61 | 70 | 19 | 122 | 170 | 118 | 198 | – | – | – | – | – | – | – |
| KAFAKLAARLYRKALARQLGVAA [MMI-0400] | 94 | – | – | – | – | – | – | – | 131 | 118 | – | 124 | 100 | 108 | 90 | 131 | – | – | – |
| YARAAARQARAKALNRQLGVA [MMI-0200] | – | – | 96 | – | – | – | – | – | – | – | 110 | – | – | 89 | 49 | 135 | 98 | 128 | 97 |
